± gives the uncertainty stated by the source.

A short description of the data set: amyloid nucleation score (Sup35N fusion, yeast selection) (log enrichment); library NNK3; higher = more nucleation; inactive = no reads after selection. The gist of the method:
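The nucleation score is the DiMSum log enrichment of output over input reads, centred on the mode score of non-aggregating sequences. Only sequences with 100 or more input reads were scored, using Illumina sequencing of input and output plasmid inserts. Psi-negative yeast expressing Sup35N fused to peptides of 20 random codons were induced 24 hours with 100 μM copper sulfate and grown 7 days at 30°C on medium lacking adenine and uracil.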
On to VAAFVNRARNATFVLALYCY, for which the amyloid nucleation score entry is “inactive”.
In the case of CVTGVSLPGNRISG, the amyloid nucleation score result is “inactive”.
For the substance LTTPVTR, the amyloid nucleation score is -0.169 ± 0.63.
The figure for HLLIHANF is 1.25 ± 0.14; for ILVWNLYLT it is 2.54 ± 0.053; for YQQSIVHVRRFTYRRAPVVA it is -0.46 ± 1.9.
In the case of LDSFATRGYSWSLGIIVMKI, the amyloid nucleation score entry was “inactive”.
As for VCWMSVRDNNNGHFLIYSSD, the amyloid nucleation score entry is “inactive”.
As for FQVLN, the amyloid nucleation score entry was “inactive”.
With SNSDVN, the amyloid nucleation score result is “inactive”.
On to ANVRMS, for which the amyloid nucleation score entry was “inactive”.
The entry for RDPFITFWYMRIYTTGRGCV is “inactive”; for TGRLVIFTEWRLSAESSRSH it is “inactive”; for HNSRFPSF it is 0.338 ± 0.58.
Take CTYLAVVTMMDEELWGIRWN: the amyloid nucleation score result was “inactive”.
Substance YSTCDLGLHIGAQQERYGLG returned an amyloid nucleation score of 0.253 ± 0.37.
For the substance RKCRCYLTSFKDPALYLT, the amyloid nucleation score entry is “inactive”.
Regarding EYTLPRPCRLLIFSDQYSNA, the amyloid nucleation score entry was “inactive”.
The figure for YISNMLTLSPAKVSHKSWVI is 0.186 ± 0.29; for GLVLTPDEEMIRQWEMLTYG it is “inactive”; for ILCVFVYRSRAESYEL it is 0.446 ± 0.23.
On to FFSFTISMAWKGQVTELKCQ, for which the amyloid nucleation score result was “inactive”.
Turning to LHLYNVDVNLIGPQVY, the amyloid nucleation score result is “inactive”.
For NCRLEESGLVTVNCVGYWWD, the amyloid nucleation score entry is “inactive”.
With HWACNWI the entry was “inactive”; with LLDSVNGHCYMCLTIMGVRN, “inactive”.
Take NSNNSGTVKFRNIRLYSTSL: the amyloid nucleation score result was “inactive”.
On to RVQMVLLMNTSFLNVLIMCI, for which the amyloid nucleation score was -0.375 ± 1.
With LFLWKTTMTPGLHRSSVVGR, the amyloid nucleation score result is “inactive”.
The figure for SLLGISVFKPERANTGQRLV is 0.721 ± 0.23.
On to FTKSREWGFMDKPAINWVSC, for which the amyloid nucleation score result was “inactive”.
With RSVYYRSLLGTNYCSFLLFD the entry was “inactive”; with EQKGKQFEVSVDSYSTWEVG, “inactive”.
With GICHSSRCWGTSENGNWLRI, the amyloid nucleation score result is “inactive”.
Regarding WCNMVRVHMF, the amyloid nucleation score result is “inactive”.
Consider LRTPGTGSFAESEDLSMTEG, for which the amyloid nucleation score entry is “inactive”.
For the substance RRYDNYRYSHRMFFKRFQAV, the amyloid nucleation score entry is “inactive”.
As to WPLYNFVISWIGRTYYSVYL, the amyloid nucleation score entry is “inactive”.
On to SRQLQPYYSVFRCLVRGSIK, for which the amyloid nucleation score result was “inactive”.
Regarding SVTPFPIIFN, the amyloid nucleation score result is “inactive”.
For the substance RLKNHSGCIILNRCVSRGRI, the amyloid nucleation score result was “inactive”.
RSFFSWAMNMRGLARWAWME returned an amyloid nucleation score of 1.78 ± 0.11.
For the substance VNVNSKYNVFLLMCRGVEVI, the amyloid nucleation score entry was “inactive”.
Take LASNDFTDVLHWC: the amyloid nucleation score result is “inactive”.
DSWHFFCFIMVCIVKYWFFA: the amyloid nucleation score result is “inactive”.
PLRLCNPLSGFVPLLFTAFR: the amyloid nucleation score entry is “inactive”.
Turning to YGFRMRRLVARLESRQWFWG, the amyloid nucleation score result was “inactive”.
For the substance IHWGRAGATEAAST, the amyloid nucleation score entry is “inactive”.
Turning to MSLNLHLKQGVFKGHTVSAL, the amyloid nucleation score entry was “inactive”.
For the substance IIPRIALPVCFVPYGLRRSS, the amyloid nucleation score entry was “inactive”.
On to VYLDYGGLHLRVLHTCRFYC, for which the amyloid nucleation score result is “inactive”.
For FKFGLQLIRCMDFHWMF, the amyloid nucleation score entry was “inactive”.
In turn, IPRYVWNVPRWYVYQFVCGA came in with an amyloid nucleation score of 0.27 ± 0.54.

These data come from the supplement of paper PMC12042874.
